In paper PMC10786891, “Massively parallel profiling of RNA-targeting CRISPR-Cas13d”:

T1: EsCas13d, nuclease-dead (Eubacterium siraeum, UniProt B0MS50, R295A;H300A;R849A;H854A)
T1 sequence: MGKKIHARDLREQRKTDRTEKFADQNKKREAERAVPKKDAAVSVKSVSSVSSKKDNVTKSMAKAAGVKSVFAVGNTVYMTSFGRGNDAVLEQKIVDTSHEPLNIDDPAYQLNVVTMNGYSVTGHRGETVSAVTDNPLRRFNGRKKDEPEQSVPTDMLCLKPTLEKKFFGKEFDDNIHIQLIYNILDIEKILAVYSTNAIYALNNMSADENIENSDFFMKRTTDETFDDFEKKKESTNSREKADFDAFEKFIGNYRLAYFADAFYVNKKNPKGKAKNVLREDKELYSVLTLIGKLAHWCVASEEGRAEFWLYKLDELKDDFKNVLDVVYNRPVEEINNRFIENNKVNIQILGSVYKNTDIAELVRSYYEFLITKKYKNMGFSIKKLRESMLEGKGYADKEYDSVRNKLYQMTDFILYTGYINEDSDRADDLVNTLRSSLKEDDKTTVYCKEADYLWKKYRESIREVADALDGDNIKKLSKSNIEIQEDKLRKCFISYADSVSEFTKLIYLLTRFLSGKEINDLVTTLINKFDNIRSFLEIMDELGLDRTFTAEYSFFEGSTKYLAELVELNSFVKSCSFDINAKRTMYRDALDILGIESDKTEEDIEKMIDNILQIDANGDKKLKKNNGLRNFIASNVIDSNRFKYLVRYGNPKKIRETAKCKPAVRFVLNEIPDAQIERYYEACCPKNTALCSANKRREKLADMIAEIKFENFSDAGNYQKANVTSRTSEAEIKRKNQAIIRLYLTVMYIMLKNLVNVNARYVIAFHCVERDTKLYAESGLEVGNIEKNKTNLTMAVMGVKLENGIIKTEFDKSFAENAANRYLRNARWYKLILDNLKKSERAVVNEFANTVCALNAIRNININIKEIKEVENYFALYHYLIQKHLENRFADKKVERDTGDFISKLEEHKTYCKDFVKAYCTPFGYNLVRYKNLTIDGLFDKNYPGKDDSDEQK

B1: target 1 complement block 5-7 (mixed)
RNA 1: CACCCGUGCAAAAAUGCAGGGGUCUAAAACUGAGCGGAUAACCUCUCUAUGG
RNA 2: GGGAAUGGAUCCACAUCUACGAAUUCGUACCAUAGAGAGGUUAUGGCCUCACCGAGAUCGGAAGAGCACACGU
B2: target 1 del7,del15 (mixed)
RNA 1: CACCCGUGCAAAAAUGCAGGGGUCUAAAACUGAGCGGAUAACCUCUCUAUGG
RNA 2: GGGAAUGGAUCCACAUCUACGAAUUCGUACCAUAGAAGGUUAUCGCUCACCGAGAUCGGAAGAGCACACGU
B3: target 1 U11A,G17C (mixed)
RNA 1: CACCCGUGCAAAAAUGCAGGGGUCUAAAACUGAGCGGAUAACCUCUCUAUGG
RNA 2: GGGAAUGGAUCCACAUCUACGAAUUCGUACCAUACAGAGGAUAUCCGCUCACCGAGAUCGGAAGAGCACACGU
B4: target 1 insA 3' of 17,insU 3' of 12 (mixed)
RNA 1: CACCCGUGCAAAAAUGCAGGGGUCUAAAACUGAGCGGAUAACCUCUCUAUGG
RNA 2: GGGAAUGGAUCCACAUCUACGAAUUCGUACCAUAGAAGAGGUUUAUCCGCUCACCGAGAUCGGAAGAGCACACGU
B5: target 1 insA 3' of 19,insG 3' of 7 (mixed)
RNA 1: CACCCGUGCAAAAAUGCAGGGGUCUAAAACUGAGCGGAUAACCUCUCUAUGG
RNA 2: GGGAAUGGAUCCACAUCUACGAAUUCGUACCAUAAGAGAGGUUAUCGCGCUCACCGAGAUCGGAAGAGCACACGU
B6: target 1 C2U,G13C (mixed)
RNA 1: CACCCGUGCAAAAAUGCAGGGGUCUAAAACUGAGCGGAUAACCUCUCUAUGG
RNA 2: GGGAAUGGAUCCACAUCUACGAAUUCGUACCAUAGAGACGUUAUCCGCUUACCGAGAUCGGAAGAGCACACGU
B7: target 1 C4G,A14C (mixed)
RNA 1: CACCCGUGCAAAAAUGCAGGGGUCUAAAACUGAGCGGAUAACCUCUCUAUGG
RNA 2: GGGAAUGGAUCCACAUCUACGAAUUCGUACCAUAGAGCGGUUAUCCGGUCACCGAGAUCGGAAGAGCACACGU
B8: target 1 G12U,C21A (mixed)
RNA 1: CACCCGUGCAAAAAUGCAGGGGUCUAAAACUGAGCGGAUAACCUCUCUAUGG
RNA 2: GGGAAUGGAUCCACAUCUACGAAUUCGUACAAUAGAGAGUUUAUCCGCUCACCGAGAUCGGAAGAGCACACGU
B9: target 1 insU 3' of 13,insG 3' of 9 (mixed)
RNA 1: CACCCGUGCAAAAAUGCAGGGGUCUAAAACUGAGCGGAUAACCUCUCUAUGG
RNA 2: GGGAAUGGAUCCACAUCUACGAAUUCGUACCAUAGAGAGUGUUAGUCCGCUCACCGAGAUCGGAAGAGCACACGU
B10: target 1 insU 3' of 6,insU 3' of 5 (mixed)
RNA 1: CACCCGUGCAAAAAUGCAGGGGUCUAAAACUGAGCGGAUAACCUCUCUAUGG
RNA 2: GGGAAUGGAUCCACAUCUACGAAUUCGUACCAUAGAGAGGUUAUCCUGUCUCACCGAGAUCGGAAGAGCACACGU
B11: target 1 del14 (mixed)
RNA 1: CACCCGUGCAAAAAUGCAGGGGUCUAAAACUGAGCGGAUAACCUCUCUAUGG
RNA 2: GGGAAUGGAUCCACAUCUACGAAUUCGUACCAUAGAGGGUUAUCCGCUCACCGAGAUCGGAAGAGCACACGU
B12: target 1 U19G,C21A (mixed)
RNA 1: CACCCGUGCAAAAAUGCAGGGGUCUAAAACUGAGCGGAUAACCUCUCUAUGG
RNA 2: GGGAAUGGAUCCACAUCUACGAAUUCGUACAAGAGAGAGGUUAUCCGCUCACCGAGAUCGGAAGAGCACACGU
B13: target 1 insA 3' of 22,insU 3' of 14 (mixed)
RNA 1: CACCCGUGCAAAAAUGCAGGGGUCUAAAACUGAGCGGAUAACCUCUCUAUGG
RNA 2: GGGAAUGGAUCCACAUCUACGAAUUCGUACACAUAGAGAUGGUUAUCCGCUCACCGAGAUCGGAAGAGCACACGU
B14: target 1 G5C,G12C (mixed)
RNA 1: CACCCGUGCAAAAAUGCAGGGGUCUAAAACUGAGCGGAUAACCUCUCUAUGG
RNA 2: GGGAAUGGAUCCACAUCUACGAAUUCGUACCAUAGAGAGCUUAUCCCCUCACCGAGAUCGGAAGAGCACACGU
B15: target 1 insC 3' of 19,insU 3' of 7 (mixed)
RNA 1: CACCCGUGCAAAAAUGCAGGGGUCUAAAACUGAGCGGAUAACCUCUCUAUGG
RNA 2: GGGAAUGGAUCCACAUCUACGAAUUCGUACCAUCAGAGAGGUUAUCUCGCUCACCGAGAUCGGAAGAGCACACGU
B16: target 1 G5A,U10C (mixed)
RNA 1: CACCCGUGCAAAAAUGCAGGGGUCUAAAACUGAGCGGAUAACCUCUCUAUGG
RNA 2: GGGAAUGGAUCCACAUCUACGAAUUCGUACCAUAGAGAGGUCAUCCACUCACCGAGAUCGGAAGAGCACACGU
B17: target 1 insA 3' of 8,insA 3' of 5 (mixed)
RNA 1: CACCCGUGCAAAAAUGCAGGGGUCUAAAACUGAGCGGAUAACCUCUCUAUGG
RNA 2: GGGAAUGGAUCCACAUCUACGAAUUCGUACCAUAGAGAGGUUAUACCGACUCACCGAGAUCGGAAGAGCACACGU
B18: target 1 C6A,A16C (mixed)
RNA 1: CACCCGUGCAAAAAUGCAGGGGUCUAAAACUGAGCGGAUAACCUCUCUAUGG
RNA 2: GGGAAUGGAUCCACAUCUACGAAUUCGUACCAUAGCGAGGUUAUCAGCUCACCGAGAUCGGAAGAGCACACGU
B19: target 1 insC 3' of 17,insU 3' of 15 (mixed)
RNA 1: CACCCGUGCAAAAAUGCAGGGGUCUAAAACUGAGCGGAUAACCUCUCUAUGG
RNA 2: GGGAAUGGAUCCACAUCUACGAAUUCGUACCAUAGCAGUAGGUUAUCCGCUCACCGAGAUCGGAAGAGCACACGU
B20: target 1 C2G,A20C (mixed)
RNA 1: CACCCGUGCAAAAAUGCAGGGGUCUAAAACUGAGCGGAUAACCUCUCUAUGG
RNA 2: GGGAAUGGAUCCACAUCUACGAAUUCGUACCCUAGAGAGGUUAUCCGCUGACCGAGAUCGGAAGAGCACACGU
B21: target 1 complement block 18-20 (mixed)
RNA 1: CACCCGUGCAAAAAUGCAGGGGUCUAAAACUGAGCGGAUAACCUCUCUAUGG
RNA 2: GGGAAUGGAUCCACAUCUACGAAUUCGUACCUAUGAGAGGUUAUCCGCUCACCGAGAUCGGAAGAGCACACGU
B22: target 1 insU 3' of 4,insG 3' of 2 (mixed)
RNA 1: CACCCGUGCAAAAAUGCAGGGGUCUAAAACUGAGCGGAUAACCUCUCUAUGG
RNA 2: GGGAAUGGAUCCACAUCUACGAAUUCGUACCAUAGAGAGGUUAUCCGCUUCGACCGAGAUCGGAAGAGCACACGU
B23: target 1 insA 3' of 15,insG 3' of 8 (mixed)
RNA 1: CACCCGUGCAAAAAUGCAGGGGUCUAAAACUGAGCGGAUAACCUCUCUAUGG
RNA 2: GGGAAUGGAUCCACAUCUACGAAUUCGUACCAUAGAGAAGGUUAUGCCGCUCACCGAGAUCGGAAGAGCACACGU
B24: target 1 C2U,G17A (mixed)
RNA 1: CACCCGUGCAAAAAUGCAGGGGUCUAAAACUGAGCGGAUAACCUCUCUAUGG
RNA 2: GGGAAUGGAUCCACAUCUACGAAUUCGUACCAUAAAGAGGUUAUCCGCUUACCGAGAUCGGAAGAGCACACGU
B25: target 1 insA 3' of 17,insG 3' of 9 (mixed)
RNA 1: CACCCGUGCAAAAAUGCAGGGGUCUAAAACUGAGCGGAUAACCUCUCUAUGG
RNA 2: GGGAAUGGAUCCACAUCUACGAAUUCGUACCAUAGAAGAGGUUAGUCCGCUCACCGAGAUCGGAAGAGCACACGU
B26: target 1 insU 3' of 17,insU 3' of 4 (mixed)
RNA 1: CACCCGUGCAAAAAUGCAGGGGUCUAAAACUGAGCGGAUAACCUCUCUAUGG
RNA 2: GGGAAUGGAUCCACAUCUACGAAUUCGUACCAUAGUAGAGGUUAUCCGCUUCACCGAGAUCGGAAGAGCACACGU
B27: target 1 insC 3' of 15,insG 3' of 10 (mixed)
RNA 1: CACCCGUGCAAAAAUGCAGGGGUCUAAAACUGAGCGGAUAACCUCUCUAUGG
RNA 2: GGGAAUGGAUCCACAUCUACGAAUUCGUACCAUAGAGCAGGUUGAUCCGCUCACCGAGAUCGGAAGAGCACACGU
B28: target 1 insU 3' of 14,insU 3' of 14 (mixed)
RNA 1: CACCCGUGCAAAAAUGCAGGGGUCUAAAACUGAGCGGAUAACCUCUCUAUGG
RNA 2: GGGAAUGGAUCCACAUCUACGAAUUCGUACCAUAGAGAUUGGUUAUCCGCUCACCGAGAUCGGAAGAGCACACGU

The binders below were run against T1, EsCas13d, nuclease-dead (assay: crRNA (strand 1, pre-loaded); Mg2+; 40 mM Tris-HCl pH 7.5, 150 mM NaCl, 6 mM MgCl2, 1 mM DTT, 0.1% Tween-20, 0.2 mg/ml BSA; 25 C; 10 min per concentration, then washed). Settings: tags: His6-TwinStrep-SUMO cleaved; N-terminal SNAP kept (SNAP-Surface 488); label: 3' end held by stalled T7 RNA polymerase.
B1 gave a Kd of 32.9 ± 1.5 nM.
With B2 the Kd was 17.3 ± 0.7 nM.
B3 showed a Kd of ~70 nM.
B4 showed a Kd of 10.4 ± 0.6 nM.
Binder B5 has a Kd of 16.3 ± 1.4 nM.
With B6 the Kd was 44 ± 7 nM.
In the case of B7, the Kd is reported as 14.1 ± 2.8 nM.
B8 showed a Kd of 27.4 ± 2.3 nM.
B9 gave a Kd of 24.8 ± 3.2 nM.
With B10 the Kd was 14.3 ± 0.6 nM.
B11 was tested, and the Kd was 12.1 ± 0.9 nM.
B12 showed a Kd of 56 ± 7 nM.
B13 showed a Kd of 41 ± 20 nM.
B14 was tested, and the Kd was 30.4 ± 1.8 nM.
B15 was tested, and the Kd was 62 ± 7 nM.
Binder B16 has a Kd of 47 ± 5 nM.
B17 was tested, and the Kd was 18.8 ± 1.5 nM.
In the case of B18, the Kd is reported as 35.4 ± 2.2 nM.
B19 was tested, and the Kd was 19.1 ± 1 nM.
B20 gave a Kd of 21.8 ± 1.1 nM.
With B21 the Kd was 57 ± 7 nM.
B22 gave a Kd of 7.4 ± 0.5 nM.
In the case of B23, the Kd is reported as 7.9 ± 0.4 nM.
B24 showed a Kd of 34.4 ± 2.7 nM.
Work on B25 yielded a Kd of 22.2 ± 2.5 nM.
B26 showed a Kd of 19.2 ± 2.1 nM.
For B27, the Kd was 24.6 ± 1.8 nM.
Binder B28 has a Kd of 21 ± 1.3 nM.
